Reference: article PMC4716841, “Attenuation of AMPK signaling by ROQUIN promotes T follicular helper cell formation” (eLife, 2015)

Target: T1, AMPKα1, endogenous (mouse), catalytic α1 subunit of adenosine monophosphate-activated protein kinase (mouse (endogenous in primary C57BL/6 …, UniProt Q5EG47 1-559))
T1 construct: AMPK catalytic α1 subunit, encoded by Prkaa1, endogenous in mouse cells; In the cells it may stand with AMPK β and γ subunits; also called α1 subunit of AMPK; encoded by Prkaa1; source: endogenous, primary C57BL/6 MEFs (in situ); endogenous, EL4 cell lysate
Experiment: proximity ligation; in situ PLA on primary C57BL/6 MEFs, endogenous proteins; goat anti-AMPKα1 (C20) with rabbit anti-ROQUIN, overnight at 4°C; resting cells or 1 mM arsenite for 1 hr; control PLA GFP:AMPKα1
Conditions: partners not purified

T1 sequence (Q5EG47 whole entry): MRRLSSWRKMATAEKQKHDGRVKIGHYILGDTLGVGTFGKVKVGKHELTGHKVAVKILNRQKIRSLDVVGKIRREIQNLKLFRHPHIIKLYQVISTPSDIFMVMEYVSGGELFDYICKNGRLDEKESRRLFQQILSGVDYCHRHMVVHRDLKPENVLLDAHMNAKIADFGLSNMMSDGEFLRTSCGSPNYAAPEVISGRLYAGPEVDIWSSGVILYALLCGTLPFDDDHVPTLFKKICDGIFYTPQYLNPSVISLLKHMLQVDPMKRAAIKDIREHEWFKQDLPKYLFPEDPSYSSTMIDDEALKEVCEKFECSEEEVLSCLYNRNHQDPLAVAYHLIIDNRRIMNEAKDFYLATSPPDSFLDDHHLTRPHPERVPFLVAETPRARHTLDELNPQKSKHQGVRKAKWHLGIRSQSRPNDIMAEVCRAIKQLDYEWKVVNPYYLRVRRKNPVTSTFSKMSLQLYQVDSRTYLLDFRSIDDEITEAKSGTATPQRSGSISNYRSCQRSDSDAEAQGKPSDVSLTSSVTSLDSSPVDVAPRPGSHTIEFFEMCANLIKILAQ

B1: ROQUIN, endogenous (mouse) (natural protein, UniProt Q4VGL6 1-1130, looked up)
chain: MPVQAPQWTDFLSCPICTQTFDETIRKPISLGCGHTVCKMCLNKLHRKACPFDQTTINTDIELLPVNSALLQLVGAQIPEQQPITLCSGVEDTKHYEEAKKCVEELALYLKPLSSARGVGLNSTTQSVLSRPMQRKLVTLVHCQLVEEEGRIRAMRAARSLGERTVTELILQHQNPQQLSSNLWAAVRARGCQFLGPAMQEEALKLVLLALEDGSALSRKVLVLFVVQRLEPRFPQASKTSIGHVVQLLYRASCFKVTKRDEDSSLMQLKEEFRTYEALRREHDSQIVQIAMEAGLRIAPDQWSSLLYGDQSHKSHMQSIIDKLQTPASFAQSVQELTIALQRTGDPANLNRLRPHLELLANIDPSPDAPPPTWEQLENGLVAVRTVVHGLVDYIQNHSKKGADQQQPPQHSKYKTYMCRDMKQRGGCPRGASCTFAHSQEELEKFRKMNKRLVPRRPLSASLGQLNEVGLPSAPILSDESAVDLSNRKPPALPNGIASSGSTVTQLIPRGTDPSFDSSLKPVKLDHLSSSAPGSPPDLLESAPKSISALPVNPHPVPPRGPTDLPPMPVTKPIQMVPRGSQLYPAQQADVYYQDPRGSAPAFETAPYQQGMYYTPPPCVSRFVRPPPSAPEPGPPYLDHYSPYLQDRVINSQYGTQPQQYPPMYPAHYDGRRVYPAQSYTREEMFRESPIPIDIPSAAVPSYVPESRERYQQVEGYYPVAPHPAQIRPSYPRDPPYSRLPPPQPHPSLDELHRRRKEIMAQLEERKVISPPPFAPSPTLPPAFHPEEFLDEDLKVAGKYKANDYSQYSPWSCDTIGSYIGTKDAKPKDVVAAGSVEMMNVESKGTREQRLDLQRRAVETSDDDLIPFGDRPTVSRFGAISRTSKTLYQGAGPLQAIAPQGAPTKSINISDYSAYGAHGGWGDSPYSPHANIPPQGHFIEREKMSMAEVASHGKPLLSAEREQLRLELQQLNHQISQQTQLRGLEAVSNRLVLQREVNTLASQPQPPQLPPKWPGMISSEQLSLELHQVEREIGKRTRELSMENQCSVDMKSKLGTSKQAENGQPEPQNKIRTEDLTLTFSDVPNGSALTQENLSLLSNKTSSLNLSEDSEGGGDNNDSQRSGVVSNSAP
notes: ROQUIN (ROQUIN1), encoded by Rc3h1, endogenous in mouse cells; also called ROQUIN1; encoded by Rc3h1; source: endogenous, primary C57BL/6 MEFs (in situ); endogenous, EL4 cell lysate
fold PLA frequency over the ROQUIN:AGO2 PLA of earlier work: ≥ 15 fold
